Laboratory results from US20250011422A1 (UNIVERSITY OF FLORIDA RESEARCH FOUNDATION, published 2025).
Where two headings read alike, the source gives them in different places.

Experiments:
[1] = biological target: T1, human Siglec-6 on the cell surface (U937, MEC1-002, MEC1-hS6, primary CLL cells) (human, UniProt O43699 27-453); assay: cell-based or functional assay
[2] = biological target: T1, human Siglec-6 on the cell surface …; assay: cell-based or functional assay; remark: listed apart in the source
[3] = biological target: T1, human Siglec-6 on the cell surface …; assay: flow cytometry titration on MEC1-hS6 cells, apparent Kd; scFv-Fc format, JML-1 clone
Description: (§1) To determine whether T-biAb format affected the affinity to Siglec-6 or CD3 on the cell surface, T-biAbs were titrated and used to stain cells for flow cytometry (FIG. 17a).
(§2) Flow cytometry: Fabs were used to stain cells at a concentration of 2 μg/mL, unless otherwise noted. […] Samples were analyzed on either an Accuri C6 Plus or a LSRII flow cytometer (both from BD Biosciences).

CD3 on human T cells [4] = biological target: T2, CD3 on human T cells (human, UniProt P07766 23-207); assay: flow cytometry titration on primary human T cells, Alexa Fluor 647 anti-human Fc secondary antibody, percent biAb+ cells
T2 construct: whole, on cells; CD3 is a complex; also called CD3+ cells
Description: as §1, §2

CD3 on human T cells [5] = biological target: T2, CD3 on human T cells; assay: flow cytometry titration on primary human T cells
Description: as §1, §2

[6] = biological target: T1, human Siglec-6 on the cell surface …; assay: flow cytometry titration on MEC1-hS6 cells, apparent Kd; scFv-Fc format, RC-1 clone
Description: as §1, §2

Siglec-6 VC28-235-His6 = biological target: T3, Siglec-6 VC28-235-His6 (human, UniProt O43699 28-235); assay: SPR, T-biAb immobilised via the Fc domain, soluble Siglec-6 (aa 28-235-His6) injected
T3 construct: It was deglycosylated with PNGase F for HDX-MS; also called soluble Siglec-6 (aa 28-235-His6); Siglec-6 ectodomain fragment
Description: (§3) Fab kinetics were determined by capturing Siglec-6-Fc (5-10 μg/mL) in HBS-EP+ buffer (Cytiva) and injecting titrated. […] Biacore evaluation software was used to calculate kₒₙ, koff, and Kd.

[7] = biological target: T1, human Siglec-6 on the cell surface …; assay: cell-based or functional assay; remark: listed apart in the source
[8] = biological target: T1, human Siglec-6 on the cell surface …; assay: flow cytometry of whole PBMC with biotinylated JML-1 IgG1, normalised to an isotype control
Description: as §2

[9] = biological target: T4, recombinant human Siglec-6 human IgG1-Fc fusion protein (human, UniProt O43699 27-347); assay: SPR, immobilized hS6-Fc, soluble Fab
T4 construct: range 27-347; The methods describe the in-house construct as the Siglec-6 ectodomain at the C-terminus of the Fc (Fc-Siglec-6); The text uses hS6-Fc, Siglec-6-Fc and Fc-Siglec-6 for the SPR and ELISA antigen without telling the orientations apart; also called hS6-Fc; Fc-hS6; not shown: human IgG1 Fc, aa 99-329

[10] = biological target: T4, recombinant human Siglec-6 human …; assay: SPR, Siglec-6-Fc captured, soluble Fab injected
Description: as §3

[11] = biological target: T1, human Siglec-6 on the cell surface …; assay: cell-based or functional assay; remark: listed apart in the source
[12] = biological target: T1, human Siglec-6 on the cell surface …; assay: flow cytometry titration on MEC1-hS6 cells, apparent Kd; aDART-Fc format, RC-1 clone
Description: as §1, §2

[13] = biological target: T4, recombinant human Siglec-6 human …; assay: SPR, monovalent Fab on Siglec-6-Fc fusion protein
Description: as §3

Siglec-2 (CD22) = biological target: T5, Siglec-2 (CD22) (Homo sapiens, UniProt P20273); assay: ELISA, siglec-Fc fusion protein coated directly, anti-human Fab detection, absorbance 405-570 nm
T5 construct: Fc fusion protein; member of the siglec panel (group m8); also called human Siglec-2-Fc fusion protein

Siglec-8 = biological target: T6, Siglec-8 (Homo sapiens, UniProt Q9NYZ4); assay: as above
T6 construct: Fc fusion protein; member of the siglec panel (group m8); also called human Siglec-8-Fc fusion protein

Siglec-9 [14] = biological target: T7, Siglec-9 (Homo sapiens, UniProt Q9Y336); assay: as above
T7 construct: Fc fusion protein; member of the siglec panel (group m8); also called human Siglec-9-Fc fusion protein

human CD33 (Siglec-3) = human CD33 (Siglec-3) (human, UniProt P20138 18-259, limits assumed); assay: as above
Siglec-9 [15] = biological target: T7, Siglec-9; assay: ELISA, siglec-Fc fusion protein coated directly (50 ng), anti-human F(ab')2-HRP detection, absorbance 405-570 nm
[16] = biological target: T8, rhesus macaque (Macaca mulatta) Siglec-6 Fc fusion protein (human; Macaca mulatta (rhesus macaque), UniProt A0A1D5QH63 16-333); assay: as above
T8 construct: range 16-333; it is not the assay construct; also called rhesus Siglec-6; macaque Siglec-6; not shown: human IgG1 Fc, aa 99-329
T8 sequence (A0A1D5QH63 entry or part of it): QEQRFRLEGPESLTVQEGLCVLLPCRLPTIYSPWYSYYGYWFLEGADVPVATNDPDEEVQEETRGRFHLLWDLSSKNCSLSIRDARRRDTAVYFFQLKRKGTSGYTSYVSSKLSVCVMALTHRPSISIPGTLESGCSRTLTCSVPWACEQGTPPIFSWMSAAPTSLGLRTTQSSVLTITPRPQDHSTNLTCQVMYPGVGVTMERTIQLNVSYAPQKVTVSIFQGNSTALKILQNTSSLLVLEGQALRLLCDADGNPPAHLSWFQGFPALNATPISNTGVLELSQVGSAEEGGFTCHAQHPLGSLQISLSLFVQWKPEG

T1 sequence (O43699 27-453): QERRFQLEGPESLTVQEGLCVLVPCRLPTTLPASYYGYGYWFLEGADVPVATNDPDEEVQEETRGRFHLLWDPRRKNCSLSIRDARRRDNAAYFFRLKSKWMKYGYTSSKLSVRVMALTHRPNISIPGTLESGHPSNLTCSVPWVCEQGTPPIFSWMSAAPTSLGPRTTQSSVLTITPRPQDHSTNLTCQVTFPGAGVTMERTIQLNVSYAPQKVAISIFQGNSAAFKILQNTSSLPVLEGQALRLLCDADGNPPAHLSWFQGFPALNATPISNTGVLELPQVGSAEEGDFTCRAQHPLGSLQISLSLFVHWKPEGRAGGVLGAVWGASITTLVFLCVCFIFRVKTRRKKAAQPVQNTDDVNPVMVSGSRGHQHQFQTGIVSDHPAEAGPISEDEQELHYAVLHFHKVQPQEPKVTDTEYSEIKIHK
T4 sequence (O43699 27-347 limits assumed): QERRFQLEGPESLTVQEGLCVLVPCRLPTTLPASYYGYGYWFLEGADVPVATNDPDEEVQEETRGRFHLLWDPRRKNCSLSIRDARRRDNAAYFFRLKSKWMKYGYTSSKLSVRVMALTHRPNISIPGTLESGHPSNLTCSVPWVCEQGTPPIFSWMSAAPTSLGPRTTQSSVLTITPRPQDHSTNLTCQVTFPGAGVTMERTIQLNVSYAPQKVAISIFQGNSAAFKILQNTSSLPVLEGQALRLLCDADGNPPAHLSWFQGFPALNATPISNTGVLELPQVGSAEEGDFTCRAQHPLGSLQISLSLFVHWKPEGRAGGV
T3 sequence (O43699 other isoform, or with tags, fused parts or gaps limits assumed): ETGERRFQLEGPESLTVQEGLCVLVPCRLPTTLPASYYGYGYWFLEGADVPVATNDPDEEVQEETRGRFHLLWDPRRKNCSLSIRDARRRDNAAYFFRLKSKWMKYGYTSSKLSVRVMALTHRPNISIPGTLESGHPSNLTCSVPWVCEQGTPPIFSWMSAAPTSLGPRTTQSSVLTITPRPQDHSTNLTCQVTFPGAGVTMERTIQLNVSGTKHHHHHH
T2 sequence (P07766 23-207): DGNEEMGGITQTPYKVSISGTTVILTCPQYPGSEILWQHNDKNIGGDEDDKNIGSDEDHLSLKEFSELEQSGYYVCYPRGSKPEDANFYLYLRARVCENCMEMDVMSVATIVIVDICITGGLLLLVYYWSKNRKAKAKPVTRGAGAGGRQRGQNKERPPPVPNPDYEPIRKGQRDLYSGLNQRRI
T7 sequence (Q9Y336 18-348 limits assumed): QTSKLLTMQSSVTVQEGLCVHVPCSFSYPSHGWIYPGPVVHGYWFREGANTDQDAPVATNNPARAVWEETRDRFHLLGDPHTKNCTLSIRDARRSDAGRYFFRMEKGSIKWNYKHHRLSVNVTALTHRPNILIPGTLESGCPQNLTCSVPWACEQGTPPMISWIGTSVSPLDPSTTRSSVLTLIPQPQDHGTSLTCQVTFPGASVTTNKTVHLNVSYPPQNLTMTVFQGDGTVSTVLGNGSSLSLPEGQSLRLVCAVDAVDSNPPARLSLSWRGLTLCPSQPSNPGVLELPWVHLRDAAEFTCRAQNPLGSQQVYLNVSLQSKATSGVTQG
Sequence of human CD33 (Siglec-3) (P20138 18-259 limits assumed): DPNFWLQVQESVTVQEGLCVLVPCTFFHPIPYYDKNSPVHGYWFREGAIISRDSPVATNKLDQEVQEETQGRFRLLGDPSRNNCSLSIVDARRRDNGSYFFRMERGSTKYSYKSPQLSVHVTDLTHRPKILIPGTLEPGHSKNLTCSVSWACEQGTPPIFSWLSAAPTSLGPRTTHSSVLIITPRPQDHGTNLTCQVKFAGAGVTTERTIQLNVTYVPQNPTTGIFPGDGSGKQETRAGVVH
T6 sequence (Q9NYZ4 17-363 limits assumed): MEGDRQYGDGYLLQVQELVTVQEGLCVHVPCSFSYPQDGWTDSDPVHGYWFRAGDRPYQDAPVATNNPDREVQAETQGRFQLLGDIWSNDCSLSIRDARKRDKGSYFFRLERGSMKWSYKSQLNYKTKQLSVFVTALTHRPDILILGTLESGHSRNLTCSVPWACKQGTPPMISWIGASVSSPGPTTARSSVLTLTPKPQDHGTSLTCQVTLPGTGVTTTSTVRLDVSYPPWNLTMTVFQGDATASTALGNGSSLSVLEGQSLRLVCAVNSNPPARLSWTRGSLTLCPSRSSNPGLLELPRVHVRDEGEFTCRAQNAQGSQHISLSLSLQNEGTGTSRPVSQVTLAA

B1: JML-1/V9 scFv-Fc (bispecific antibody)
chain 1: not shown
chain 2: EVQLVESGGGLVQPGGSLRLSCAASGYSFTGYTMNWVRQAPGKGLEWVALINPYKGVSTYNQKFKDRFTISVDKSKNTAYLQMNSLRAEDTAVYYCARSGYYGDSDWYFDVWGQGTLVTVSSGGGGSGGGGSGGGGSDIQMTQSPSSLSASVGDRVTITCRASQDIRNYLNWYQQKPGKAPKLLIYYTSRLESGVPSRFSGSGSGTDYTLTISSLQPEDFATYYCQQGNTLPWTFGQGTKVEIKEPKSSDKTHTCPPCPAPELLGGPSVFLFPPKPKDTLMISRTPEVTCVVVDVSHEDPEVKFNWYVDGVEVHNAKTKPREEQYASTYRVVSVLTVLHQDWLNGKEYKCKVSNKALPAPIEKTISKAKGQPREPQVCTLPPSRDELTKNQVSLSCAVKGFYPSDIAVEWESNGQPENNYKTTPPVLDSDGSFFLVSKLTVDKSRWQQGNVFSCSVMHEALHNHYTQKSLSLSPGA
notes: Knobs-into-holes heterodimer of the JML-1 scFv-Fc knob arm and the shared anti-CD3 V9 scFv-Fc hole arm; Both arms carry N297A; also called JML-1 clone T-biAb
[1]
  specific lysis of MEC1-hS6 by healthy donor T cells, EC50: 0.0024 nM
  specific lysis of primary CLL cells by autologous T cells, day 11, median: 8.8%
[2]
  EC50 (read off the curve), NFAT reporter activation with MEC1-002 cells: ~0.08 nM
[3]
  Kd: 0.61 nM
CD3 on human T cells [4]
  EC50 (read off the curve): ~0.07 nM

B2: RC-1/V9 scFv-Fc (bispecific antibody)
chain 1: not shown
chain 2: B1 chain 2
notes: Knobs-into-holes heterodimer of the RC-1 scFv-Fc knob arm and the shared anti-CD3 V9 scFv-Fc hole arm; also called RC-1 clone in scFv-Fc format
[1]
  specific lysis of MEC1-hS6 by healthy donor T cells, EC50: 0.003 nM
  specific lysis of primary CLL cells by autologous T cells, day 11, median: 2.4%
[2]
  EC50 (read off the curve), NFAT reporter activation with MEC1-002 cells: ~0.1 nM
CD3 on human T cells [5]
  fold more potent binding than the aDART-Fc: ~2 fold
[6]
  Kd: 1.1 nM
Siglec-6 VC28-235-His6
  Kd: 0.1 nM
  koff: 0.00031 s⁻¹
  kon: 3.05e+06 M⁻¹ s⁻¹
CD3 on human T cells [4]
  EC50 (read off the curve): ~0.05 nM

B3: V9/RC-1 sDART-Fc (bispecific antibody)
chain 1: DIQMTQSPSSLSASVGDRVTITCRASQDIRNYLNWYQQKPGKAPKLLIYYTSRLESGVPSRFSGSGSGTDYTLTISSLQPEDFATYYCQQGNTLPWTFGQGTKVEIKGGGSGGGGEVQLVESGGGLVQPGRSLRLSCAASGFTFSSYGMHWVRQAPGKGLEWVAVISYDGSNKYYADSVKGRFTISRDNSKNTLYLQMNSLRAEDTAVYYCANYGMDVWGKGTTVTVSSGCPPCPAPEAAGGPSVFLFPPKPKDTLMISRTPEVTCVVVDVSHEDPEVKFNWYVDGVEVHNAKTKPREEQYNSTYRVVSVLTVLHQDWLNGKEYKCKVSNKALGAPIEKTISKAKGQPREPQVCTLPPSRDELTKNQVSLSCAVKGFYPSDIAVEWESNGQPENNYKTTPPVLDSDGSFFLVSKLTVDKSRWQQGNVFSCSVMHEALHNRFTQKSLSLSPGA
chain 2: not shown
notes: Two-chain symmetric DART-Fc
[7]
  EC50, lysis of MEC1-hS6 cells by human T cells (E:T 1:1, luciferase): 0.00069 nM
Siglec-6 VC28-235-His6
  Kd: 0.07 nM
  koff: 0.0003 s⁻¹
  kon: 4.14e+06 M⁻¹ s⁻¹
CD3 on human T cells [4]
  EC50 (read off the curve): ~0.3 nM

B4: JML-1 biotinylated IgG1 (antibody, V domains shown)
VH: KVQLLESGGGLVQPGRSLRLSCAASGFTFDDYGMHWVRQAPGKGLEWVSGISWNSGSIGYADSVKGRFTISRDNSKNTLYLQMNSLRAEDTAVYYCARGGQTIDIWGQGTMVTVSS
VL: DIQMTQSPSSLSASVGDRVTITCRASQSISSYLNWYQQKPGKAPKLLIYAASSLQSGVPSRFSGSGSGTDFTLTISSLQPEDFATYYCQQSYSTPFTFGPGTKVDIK
modifications: Biotinylated IgG1; the biotin sites are not stated and are not carried in the letters.
[8]
  binding result: binds

B5: RC-2 Fab (Fab, V domains shown)
VH: EVQLLESGGGVVQPGRSLRLSCAASGFTFSSYGMHWVRQAPGKGLEWVAVISYDGSNKHYADSVKGRFTISRDNSKNTLYLQMNSLRAEDTAVYYCARGGQTIDIWGQGTMVTVSS
VL: not shown
notes: Human Fab (kappa), expressed in E. coli
[9]
  Kd: 2.76 nM
[10]
  T1/2: 27 min

B6: RC-1/V9 aDART-Fc (bispecific antibody)
chain 1: not shown
chain 2: DIQMTQSPSSLSASVGDRVTITCRASQDIRNYLNWYQQKPGKAPKLLIYYTSRLESGVPSRFSGSGSGTDYTLTISSLQPEDFATYYCQQGNTLPWTFGQGTKVEIKGGGGSGGGGEVQLVESGGGLVQPGRSLRLSCAASGFTFSSYGMHWVRQAPGKGLEWVAVISYDGSNKYYADSVKGRFTISRDNSKNTLYLQMNSLRAEDTAVYYCANYGMDVWGKGTTVTVSSASTKGKVAACKEKVAALKEKVAALKEKVAALKE
chain 3: DKTHTCPPCPAPEAAGGPSVFLFPPKPKDTLMISRTPEVTCVVVDVSHEDPEVKFNWYVDGVEVHNAKTKPREEQYNSTYRVVSVLTVLHQDWLNGKEYKCKVSNKALGAPIEKTISKAKGQPREPQVCTLPPSRDELTKNQVSLSCAVKGFYPSDIAVEWESNGQPENNYKTTPPVLDSDGSFFLVSKLTVDKSRWQQGNVFSCSVMHEALHNRFTQKSLSLSPGA
notes: Three-chain asymmetric DART-Fc; Chain 1 is RC-1vk-G3SG4-V9vh-ASTK-E-coil-G3-Fc knobs, chain 2 is V9vk-G4SG4-RC-1vh-ASTK-K-coil, and chain 3 is Fc holes; also called Siglec-6xCD3 T-biAb in aDART-Fc format
[1]
  directed T cell lysis of CLL cell lines, EC50: 0.00012 nM
  fold increase in lysis potency compared to RC-1/V9 scFv-Fc: 25 fold
  fold lower lysis EC50 than CD19/V9 scFv-Fc (MEC1-002, E:T 1:30, 48 h): ~3 fold
  fold lower lysis EC50 than RC-1/V9 scFv-Fc (MEC1-002, E:T 1:30, 48 h): > 10 fold
  specific lysis of MEC1-002 cells at E:T 1:30, EC50: 0.0011 nM
  specific lysis of primary CLL cells by autologous T cells, day 11, median: 24.9%
[11]
  EC50 (read off the curve), NFAT reporter activation with MEC1-002 cells: ~0.04 nM
[12]
  Kd: 0.79 nM
Siglec-6 VC28-235-His6
  Kd: 0.15 nM
  koff: 0.00045 s⁻¹
  kon: 2.96e+06 M⁻¹ s⁻¹
CD3 on human T cells [4]
  EC50 (read off the curve): ~0.1 nM

B7: ARN-1 Fab (Fab, V domains shown)
VH: EVQLVQSGGGVVQPGRSLTLSCAAFGFTFSTYTMHWVRQAPGKGLEWVAVISYDEGFKYYADSVKGRFTISRDISKNTLYLQMNSLRTEDTAVYYCAREASAFDIWGQGTMVTVSS
VL: SYVLTQPPLVSVSPGQTARITCSGENWGQKYASWYQQKPGQSPMLIIYEDTKRPSEIPERFSGSNSGSTVTLTISGTQPMDEADYYCQAWDDSTGGVFGTGTKVTVL
notes: Human Fab from a naive human Fab library
[13]
  Kd: 2.63 nM
  koff: 0.000268 s⁻¹
  kon: 100000 M⁻¹ s⁻¹
Siglec-2 (CD22)
  binding result: no binding (tested: 75 ng Fab per well)
Siglec-8
  binding result: no binding (tested: 75 ng Fab per well)
Siglec-9 [14]
  binding result: no binding (tested: 75 ng Fab per well)
Human CD33 (Siglec-3)
  binding result: no binding (tested: 75 ng Fab per well)

B8: RC-1 Fab (Fab, V domains shown)
VH: EVQLVESGGGLVQPGRSLRLSCAASGFTFSSYGMHWVRQAPGKGLEWVAVISYDGSNKYYADSVKGRFTISRDNSKNTLYLQMNSLRAEDTAVYYCANYGMDVWGKGTTVTVSS
VL: not shown
notes: Human Fab (kappa) from the post-alloHSCT phage library, expressed in E. coli
[9]
  Kd: 0.49 nM
[10]
  T1/2: 37 min
Siglec-2 (CD22)
  binding result: no binding (tested: 75 ng Fab per well)
Siglec-8
  binding result: no binding (tested: 75 ng Fab per well)
Human CD33 (Siglec-3)
  binding result: no binding (tested: 75 ng Fab per well)
Siglec-9 [15]
  binding result: no binding (tested: 75 ng Fab per well)
[16]
  binding result: no binding (tested: 75 ng Fab per well)
